The values below are quoted from earlier work in patent publication US20200069786A1, “COMPOSITION AND PROCESS FOR PREPARING VACCINE” (TREOS BIO ZRT., priority 2018, published 2020).

Where two headings read alike, the source gives them in different places.

The data set deals with TSA.
The mark [1] stands for this setting: TSA expression rate in Cervical cancer.
Where [2] appears, read: TSA expression rate in PROSTATE cancer.
Where [3] appears, read: TSA expression rate in BLADDER cancer.
Where [4] appears, read: TSA expression rate in HEAD and NECK.

B1: AKAP-4 (protein, UniProt Q5JQC9 189-854, looked up)
A-kinase anchor protein 4: QSPSAPPAKPPSTQRAVISPDGECSIDDLSFYVNRLSSLVIQMAHKEIKEKLEGKSKCLHHSICPSPGNKERISPRTPASKIASEMAYEAVELTAAEMRGTGEESREGGQKSFLYSELSNKSKSGDKQMSQRESKEFADSISKGLMVYANQVASDMMVSLMKTLKVHSSGKPIPASVVLKRVLLRHTKEIVSDLIDSCMKNLHNITGVLMTDSDFVSAVKRNLFNQWKQNATDIMEAMLKRLVSALIGEEKETKSQSLSYASLKAGSHDPKCRNQSLEFSTMKAEMKERDKGKMKSDPCKSLTSAEKVGEHILKEGLTIWNQKQGNSCKVATKACSNKDEKGEKINASTDSLAKDLIVSALKLIQYHLTQQTKGKDTCEEDCPGSTMGYMAQSTQYEKCGGGQSAKALSVKQLESHRAPGPSTCQKENQHLDSQKMDMSNIVLMLIQKLLNENPFKCEDPCEGENKCSEPRASKAASMSNRSDKAEEQCQEHQELDCTSGMKQANGQFIDKLVESVMKLCLIMAKYSNDGAALAELEEQAASANKPNFRGTRCIHSGAMPQNYQDSLGHEVIVNNQCSTNSLQKQLQAVLQWIAASQFNVPMLYFMGDKDGQLEKLPQVSAKAAEKGYSVGGLLQEVMKFAKERQPDEAVGKVARKQLLDWLLANL
Regarding B1, the “TSA Expression Rate (ER)” value is 85% (BREAST), 25% (LUNG) and 89% (OVARIAN). In addition, the “Expression Rate (ER) %” value (TSA expression rate in CRC) is reported as 74%, the “Expression Rate (ER) %” value under setting [1] was 86% and the “Expression Rate (ER) %” value under setting [2] was 65%.

B2: MAGE-A4 (protein, UniProt P43358 1-317, looked up)
Melanoma-associated antigen 4: MSSEQKSQHCKPEEGVEAQEEALGLVGAQAPTTEEQEAAVSSSSPLVPGTLEEVPAAESAGPPQSPQGASALPTTISFTCWRQPNEGSSSQEEEGPSTSPDAESLFREALSNKVDELAHFLLRKYRAKELVTKAEMLERVIKNYKRCFPVIFGKASESLKMIFGIDVKEVDPASNTYTLVTCLGLSYDGLLGNNQIFPKTGLLIIVLGTIAMEGDSASEEEIWEELGVMGVYDGREHTVYGEPRKLLTQDWVQENYLEYRQVPGSNPARYEFLWGPRALAETSYVKVLEHVVRVNARVRIAYPSLREAALLEEEEGV
With B2, the “TSA Expression Rate (ER)” value is, setting by setting: (BRAIN) 11%; (BREAST) 9%; (HCC) 7%; (LUNG) 27%; (OVARIAN) 37%; (PANCREATIC) 2%. Also, the “TSA Expression Rate (ER)” value (THYROID) is on record as 0%. Further, the “Expression Rate (ER) %” value is recorded as 27% under setting [3]; 18% (TSA expression rate in CRC); 23% under setting [1]; 76% (TSA expression rate in Esophageal); 24% (TSA expression rate in GASTRIC cancer); 42% under setting [4]. The “Expression Rate (ER) %” value was 17% (TSA expression rate in Kidney); 36% (TSA expression rate in LEUKEMIAS); 30% (TSA expression rate in MELANOMA); 41% (TSA expression rate in PEDIATRIC); 0% under setting [2].

B3: HOM-TES-85 (protein, UniProt Q9P127 1-313, looked up)
Leucine zipper protein 4: MASFRKLTLSEKVPPNHPSRKKVNFLDMSLDDIIIYKELEGTNAEEEKNKRQNHSKKESPSRQQSKAHRHRHRRGYSRCRSNSEEGNHDKKPSQKPSGFKSGQHPLNGQPLIEQEKCSDNYEAQAEKNQGQSEGNQHQSEGNPDKSEESQGQPEENHHSERSRNHLERSLSQSDRSQGQLKRHHPQYERSHGQYKRSHGQSERSHGHSERSHGHSERSHGHSERSHGHSKRSRSQGDLVDTQSDLIATQRDLIATQKDLIATQRDLIATQRDLIVTQRDLVATERDLINQSGRSHGQSERHQRYSTGKNTITT
Turning to B3, the “TSA Expression Rate (ER)” value is recorded as 10% (BRAIN), 47% (BREAST), 19% (HCC) and 32% (OVARIAN). Further, the “Expression Rate (ER) %” value runs as follows: under setting [3], 0%; under setting [4], 4%; (TSA expression rate in LUNG cancer) 11%; (TSA expression rate in LYMPHOMAS) 14%.
